Source: US20240116985A1 (published 2024)
Starred links: 1 amine or outer side, 2 acyl side, 3 side chain; linkers in the order of their positions; H or OH if unused. Positions of bridges follow the written chain, without caps; N, C: chain ends. Non-standard residues stand in square brackets, D forms with d. Primed or numbered codes have the meaning given here. B5(17) = 2,2-bis(4-pentenyl)glycine = 2-amino-2-(pent-4-en-1-yl)hept-6-enoic acid, stitching residue, C=CCCCC(CCCC=C)(N[*:1])C(=O)[*:2]; B5(4) = 2,2-bis(4-pentenyl)glycine = 2-amino-2-(pent-4-en-1-yl)hept-6-enoic acid (stitching residue), C=CCCCC(CCCC=C)(N[*:1])C(=O)[*:2]; B5(5) = 2,2-bis(4-pentenyl)glycine, 2-amino-2-(pent-4-en-1-yl)hept-6-enoic acid (stitching residue), C=CCCCC(CCCC=C)(N[*:1])C(=O)[*:2]; B5(21) = 2-amino-2-(pent-4-en-1-yl)hept-6-enoic acid, bis(4-pentenyl)glycine (stitching residue), C=CCCCC(CCCC=C)(N[*:1])C(=O)[*:2]; (NHCyBu)AsnR = N4-cyclobutyl-L-asparagine, O=C(C[C@H](N[*:1])C(=O)[*:2])NC1CCC1; (NHCyPr)AsnR = N4-cyclopropyl-L-asparagine, O=C(C[C@H](N[*:1])C(=O)[*:2])NC1CC1; TOMe = O-methyl-L-threonine, CO[C@H](C)[C@H](N[*:1])C(=O)[*:2]; Ala(2-furyl) = N[C@@H](Cc1ccco1)C(=O)O; Bta = N[C@@H](Cc1csc2ccccc12)C(=O)O; αAllylPro = C=CC[C@@]1(C(=O)O)CCCN1; S8 = C=CCCCCCC[C@](C)(N)C(=O)O

T1: full-length beta-Catenin (Uniprot ID P35222) (Homo sapiens (Human), UniProt P35222 1-781)
T1 construct: also called bCat; B-Catenin
T1 sequence: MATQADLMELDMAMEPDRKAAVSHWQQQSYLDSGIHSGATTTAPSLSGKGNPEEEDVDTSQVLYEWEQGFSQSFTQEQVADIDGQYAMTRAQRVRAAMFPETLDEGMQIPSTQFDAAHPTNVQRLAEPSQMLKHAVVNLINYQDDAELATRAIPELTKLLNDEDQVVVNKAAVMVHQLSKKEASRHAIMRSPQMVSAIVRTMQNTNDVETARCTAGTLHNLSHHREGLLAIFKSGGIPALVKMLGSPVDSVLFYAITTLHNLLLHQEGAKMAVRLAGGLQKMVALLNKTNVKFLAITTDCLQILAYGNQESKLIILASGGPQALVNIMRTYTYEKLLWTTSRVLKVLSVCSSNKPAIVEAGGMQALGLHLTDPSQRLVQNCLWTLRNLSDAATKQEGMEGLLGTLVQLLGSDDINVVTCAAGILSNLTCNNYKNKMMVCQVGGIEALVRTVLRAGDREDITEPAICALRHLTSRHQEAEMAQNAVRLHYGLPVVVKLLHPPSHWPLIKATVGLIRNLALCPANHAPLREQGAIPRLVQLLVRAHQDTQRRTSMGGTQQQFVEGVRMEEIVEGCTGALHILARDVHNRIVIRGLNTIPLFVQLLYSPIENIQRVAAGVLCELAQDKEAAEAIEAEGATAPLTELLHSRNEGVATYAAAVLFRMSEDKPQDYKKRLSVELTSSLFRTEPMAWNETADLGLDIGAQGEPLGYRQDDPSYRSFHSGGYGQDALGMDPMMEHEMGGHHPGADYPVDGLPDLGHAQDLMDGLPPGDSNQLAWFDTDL

T2: full-length beta-Catenin (Uniprot ID P35222) (Homo sapiens (Human), UniProt P35222 1-781)
T2 construct: also called bCat; B-Catenin
T2 sequence: T1 sequence

B1: I-327 (peptide)
peptide: Ac-[αAllylPro]DA[B5(4)]DDAA[Ala(2-furyl)]V[S8]FWQ-NH2
modifications: staple 1-4, 4-11; not fully specified; printed as Ac-PL3-Asp-Ala-B5-Asp-Asp-Ala-Ala-2FurA-Val-S8-Phe-Trp-Gln-NH2
notes: Stapled peptide composition; also called Ac-PL3-Asp-Ala-B5-Asp-Asp-Ala-Ala-2FurA-Val-S8-Phe-Trp-Gln-NH2
B2: I-541 (peptide)
peptide: Ac-[αAllylPro]D[TOMe][B5(21)]DEAAFQ[S8]F[Bta]Q-NH2
modifications: staple 1-4, 4-11
B3: I-539 (peptide)
peptide: Ac-[αAllylPro]DA[B5(21)][(NHCyBu)AsnR]DAAFV[S8]F[Bta]Q-NH2
modifications: staple 1-4, 4-11
notes: Stapled (stitched) peptide composition
B4: I-538 (peptide)
peptide: Ac-[αAllylPro]DA[B5(21)][(NHCyPr)AsnR]DAAFV[S8]F[Bta]Q-NH2
modifications: staple 1-4, 4-11
notes: as for B3
B5: I-562 (peptide)
peptide: Ac-[αAllylPro]DL[B5(5)]DDAAFN[S8]F[Bta]Q-NH2
modifications: staple 1-4, 4-11
B6: I-554 (peptide)
peptide: XDIXDDAAFNXFXH
modifications: not fully specified; Ac-PL3-Asp-Ile-B5-Asp-Asp-Ala-Ala-Phe-Asn-S8-2OMeF-BztA-His-NH2; N-terminal acetyl, C-terminal amide; non-natural: PL3(1), B5(4), S8(11), 2OMeF(12), BztA(13); staples PL3(1)-B5(4) and B5(4)-S8(11)
B7: I-558 (peptide)
peptide: XDLXDDAAFQXFXQ
modifications: not fully specified; Ac-PL3-Asp-Leu-B5-Asp-Asp-Ala-Ala-Phe-Gln-S8-Phe-BztA-Gln-NH2; N-terminal acetyl, C-terminal amide; non-natural: PL3(1), B5(4), S8(11), BztA(13); staples PL3(1)-B5(4) and B5(4)-S8(11)
B8: I-565 (peptide)
peptide: XDLXDDAAFNXFXH
modifications: not fully specified; Ac-PL3-Asp-Leu-B5-Asp-Asp-Ala-Ala-Phe-Asn-S8-Phe-BztA-His-NH2; N-terminal acetyl, C-terminal amide; non-natural: PL3(1), B5(4), S8(11), BztA(13); staples PL3(1)-B5(4) and B5(4)-S8(11)
B9: I-553 (peptide)
peptide: XDIXDDAAFNXFXH
modifications: not fully specified; Ac-PL3-Asp-Ile-B5-Asp-Asp-Ala-Ala-Phe-Asn-S8-2OMeF-BztA-His-NH2; N-terminal acetyl, C-terminal amide; non-natural: PL3(1), B5(4), S8(11), 2OMeF(12), BztA(13); staples PL3(1)-B5(4) and B5(4)-S8(11)
B10: I-559 (peptide)
peptide: XDLXDDAAFQXFXQ
modifications: not fully specified; Ac-PL3-Asp-Leu-B5-Asp-Asp-Ala-Ala-Phe-Gln-S8-Phe-BztA-Gln-NH2; N-terminal acetyl, C-terminal amide; non-natural: PL3(1), B5(4), S8(11), BztA(13); staples PL3(1)-B5(4) and B5(4)-S8(11)
B11: I-561 (peptide)
peptide: XDLXDDAAFQXFXH
modifications: not fully specified; Ac-PL3-Asp-Leu-B5-Asp-Asp-Ala-Ala-Phe-Gln-S8-Phe-BztA-His-NH2; N-terminal acetyl, C-terminal amide; non-natural: PL3(1), B5(4), S8(11), BztA(13); staples PL3(1)-B5(4) and B5(4)-S8(11)
B12: I-549 (peptide)
peptide: XDIXDDAAFNXFXQ
modifications: not fully specified; Ac-PL3-Asp-Ile-B5-Asp-Asp-Ala-Ala-Phe-Asn-S8-2OMeF-BztA-Gln-NH2; N-terminal acetyl, C-terminal amide; non-natural: PL3(1), B5(4), S8(11), 2OMeF(12), BztA(13); staples PL3(1)-B5(4) and B5(4)-S8(11)
B13: I-557 (peptide)
peptide: Ac-[αAllylPro]DI[B5(17)]DEAAFN[S8]F[Bta]Q-NH2
modifications: staple 1-4, 4-11
notes: as for B3
B14: I-566 (peptide)
peptide: XDVXDDAAFNXFXQ
modifications: not fully specified; Ac-PL3-Asp-Val-B5-Asp-Asp-Ala-Ala-Phe-Asn-S8-Phe-BztA-Gln-NH2; N-terminal acetyl, C-terminal amide; non-natural: PL3(1), B5(4), S8(11), BztA(13); staples PL3(1)-B5(4) and B5(4)-S8(11)
B15: I-543 (peptide)
peptide: Ac-[αAllylPro]DL[B5(4)]DEAAFN[S8]F[Bta]H-NH2
modifications: staple 1-4, 4-11
notes: as for B3
B16: I-564 (peptide)
peptide: Ac-[αAllylPro]DL[B5(5)]DDAAFN[S8]F[Bta]H-NH2
modifications: staple 1-4, 4-11
B17: I-560 (peptide)
peptide: Ac-[αAllylPro]DL[B5(5)]DDAAFQ[S8]F[Bta]H-NH2
modifications: staple 1-4, 4-11
B18: I-550 (peptide)
peptide: XDIXDDAAFNXFXQ
modifications: not fully specified; Ac-PL3-Asp-Ile-B5-Asp-Asp-Ala-Ala-Phe-Asn-S8-2OMeF-BztA-Gln-NH2; N-terminal acetyl, C-terminal amide; non-natural: PL3(1), B5(4), S8(11), 2OMeF(12), BztA(13); staples PL3(1)-B5(4) and B5(4)-S8(11)

target: T1, full-length beta-Catenin (Uniprot ID …); assay: fluorescence polarization competition vs 5FAM-TCF4(10-53) on full-length beta-catenin
Procedure: (§1) The plate was incubated protected from light for 60 minutes at 20° C. prior to read. Reads were performed on a CLARIOstar plate reader (BMG Labtech) in duplicate, and data were fitted to a 1:1 binding model with hill slope using an in-house script. All provided concentrations are final concentrations.

B1 showed an IC50 of 4720 nM.

target: T2, full-length beta-Catenin (Uniprot ID …); assay: fluorescence polarization competition; displacement of 5FAM-TCF4(10-53) from full-length beta-catenin
Procedure: as §1

Going from B2 to B3, the EC50 rises from 180 nM to 5000 nM (28-fold).

Going from B4 to B5, the EC50 falls from 5000 nM to 51 nM (98-fold). The second is the more potent here.

Compared with B6, B7 is 2-fold higher in EC50: 27.5 nM for the first, 56 nM for the second.

Going from B8 to B9, the EC50 rises from 13 nM to 61 nM (4.7-fold). The first is the more potent here.

B10 and B11 are within 1.5-fold of each other in EC50: 43 nM for the first, 34 nM for the second.

Going from B12 to B13, the EC50 falls from 71 nM to 35 nM (2-fold).

First: B14
Second: B15
The EC50 of the first is 2.4-fold higher: 76 nM for the first, 32 nM for the second.

Compared with B16, B17 is 2.2-fold higher in EC50: 36 nM for the first, 81 nM for the second.

B18 showed an EC50 of 30 nM.
